These results are taken from article PMC2904831 (Journal of molecular biology, 2010).

Where two headings read alike, the source gives them in different places. Where no end group is shown, it is not given here. [ ]: non-standard residue; d: D form. pS = N[C@@H](COP(=O)(O)O)C(=O)O

For experiment [1], the system named is pMART-1-specific CD4+ T cell clone D7-F6. The experiment can be described thus: Recognition of peptide-pulsed HLA-DR1+ EBV-B cells by CD4+ T cell clone D7-F6. It is filed as cell-based, human. To be noted: ELISA.
In experiment [2] the test system is pMART-1-specific CD4+ T cell line D7. Briefly: Recognition of titrated peptides on HLA-DR1+ APC by CD4+ T cell line D7. The class given is cell-based, human. The note with it: T cell line D7, peptide 25 μM, ELISA; Fig. 4b.
For experiment [3], the target named is HLA-DR1 (HLA-DRβ1*0101) purified from the EBV-transformed homozygous B lymphoblastoid cell line LG2 (human). The experiment can be described thus: radioligand binding.
The target is the same in experiment [4]. Briefly: radioligand binding. The source holds these as a separate data set.

In the case of PKYVKQNTLKLAT [HA307-319], the “GM-CSF secretion from T cells + APC + peptide” value in experiment [1] (clone D7-F6, HLA-DR1+ 2048-EBV cells pre-pulsed with peptide 25 μM, overnight, Fig. 3) is less than 15 pg/mL; in experiment [1] (clone D7-F6, peptide 15 μM, Fig. 4a) it was less than 20 pg/mL; in experiment [2] it was 0.7 ng/mL.

Turning to “pMART-1_(98–109) phosphopeptide (from UniProt Q16655 98-109)”, the fold decrease in other in experiment [3] was less than 2 fold.

In experiment [3], “pMART-1_(100–116) phosphopeptide (from UniProt Q16655 100-116)” yielded an IC50 of 327 nM.

On to APPAYEKL[pS]AEQ [pMART-1_(100–111) phosphopeptide], for which the IC50 in experiment [4] came to 459 nM. This lies in the sub-micromolar range.

As for APPAYEKL[pS]AEQSPPP [pMART-1_(100–115) phosphopeptide], the half-inhibitory concentration (IC50) in experiment [4] is 142 nM.

Turning to APPAYEKL[pS]AEQSPP [pMART-1_(100–114) phosphopeptide], the IC50 in experiment [4] amounted to 102 nM.
